Source: US20220227809A1
Ends that are not written are not given here.

B1: norovirus-binding peptide of SEQ ID NO: 103 (peptide)
peptide: RFLVPVVKVM
modifications: also: biotinylated via PEG3 (AEEEA)-Trp spacer, attachment site and resin-derived C-terminal Lys or Cys not given here
B2: norovirus-binding peptide of SEQ ID NO: 167 (peptide)
peptide: FVWRRRAGLY
modifications: also: biotinylated via PEG3 (AEEEA)-Trp spacer, attachment site and resin-derived C-terminal Lys or Cys not given here
B3: norovirus-binding peptide of SEQ ID NO: 205 (peptide)
peptide: FVWSRRTGLY
modifications: also: biotinylated via PEG3 (AEEEA)-Trp spacer, attachment site and resin-derived C-terminal Lys or Cys not given here
B4: norovirus-binding peptide of SEQ ID NO: 263 (peptide)
peptide: ANYRWSRSIK
modifications: also: biotinylated via PEG3 (AEEEA)-Trp spacer, attachment site and resin-derived C-terminal Lys or Cys not given here
B5: norovirus-binding peptide of SEQ ID NO: 283 (peptide)
peptide: RSMSLHVSMT
modifications: also: biotinylated via PEG3 (AEEEA)-Trp spacer, attachment site and resin-derived C-terminal Lys or Cys not given here
B6: norovirus-binding peptide of SEQ ID NO: 288 (peptide)
peptide: CKARSARGVS
modifications: also: biotinylated via PEG3 (AEEEA)-Trp spacer, attachment site and resin-derived C-terminal Lys or Cys not given here
B7: norovirus-binding peptide of SEQ ID NO: 302 (peptide)
peptide: VWWGRRISRF
modifications: also: biotinylated via PEG3 (AEEEA)-Trp spacer, attachment site and resin-derived C-terminal Lys or Cys not given here

Experiments:
[1] = target: norovirus GII.17 Saitama strain virus-like particle (VLP) (norovirus GII.17 Saitama strain); assay: BLI (BLItz), biotinylated peptide on SA chip, VLP in solution
[2] = target: norovirus GII.3 TCH strain virus-like particle (VLP) (norovirus GII.3 TCH strain); assay: as above

Row | Binder | Kd [1] | koff [1] | kon [1] | Kd [2] | koff [2] | kon [2]
1 | B1 | 8.13 nM | 0.0112 s⁻¹ | 1.38e+06 M⁻¹ s⁻¹ | 8.07 nM | 0.017 s⁻¹ | 2.1e+06 M⁻¹ s⁻¹
2 | B2 | 0.696 nM | 0.00111 s⁻¹ | 1.59e+06 M⁻¹ s⁻¹ | 1.39 nM | 0.00435 s⁻¹ | 3.14e+06 M⁻¹ s⁻¹
3 | B3 | 109 nM | 0.0184 s⁻¹ | 169000 M⁻¹ s⁻¹ | 31.6 nM | 0.0325 s⁻¹ | 1.03e+06 M⁻¹ s⁻¹
4 | B4 | – | – | – | 57.5 nM | 0.049 s⁻¹ | 851000 M⁻¹ s⁻¹
5 | B5 | 1.39 nM | 0.00138 s⁻¹ | 994000 M⁻¹ s⁻¹ | 0.909 nM | 0.00715 s⁻¹ | 7.86e+06 M⁻¹ s⁻¹
6 | B6 | 12 nM | 0.00747 s⁻¹ | 620000 M⁻¹ s⁻¹ | 6.86 nM | 0.0143 s⁻¹ | 2.09e+06 M⁻¹ s⁻¹
7 | B7 | 28.4 nM | 0.0648 s⁻¹ | 2.28e+06 M⁻¹ s⁻¹ | – | – | –
